The labels stand for the following.
B1: VRT-13 (Fc fusion)
chain: QITSVWTKGVTPPTPEQFRYNNEDVFHAPYTAHQGWYDITKTFDGKDNLLCGAATAGNMLHWWFDQNKTEIEAYLSKHPEKQKIIFNNQELFDLKAAIDTKDSQTNSALFNYFRDKAFPNLSARQLGVMPDLVLDMFINGYYLNVFKTQSTDVNRPYQDKDKRGGIFDAVFTRGDQTTLLTARHDLKNKTLNDISTIIKQELTEGRALALSHTYANVSISHVINLWGADFNAEGNLEAIYVTDSDSNASIGMKKYFVGVNASGKVAISAKKIEGENIGAQVLGLFTLSSGKDIWQKLSDKTHTCPPCPAPEAAGAPSVFLFPPKPKDTLMISRTPEVTCVVVDVSHEDPEVKFNWYVDGVEVHNAKTKPREEQQNSTYRVVSVLTVLHQDWLNGKEYKCKVSNKALKAPIEKTISKAKGQPREPQVYTLPPSRDELTKNQVSLTCLVKGFYPSDIAVEWESNGQPENNYKTTPPVLDSDGSFFLYSKLTVDKSRWQQGNVFSCSVMHEALHNHYTQKSLSLSPG
B2: VRT-12 (Fc fusion)
chain: QITSVWTKGVTPLTPEQFRYNNEDVIHAPYLANQGWYDITKTFNGKDNLLCGAATAGNMLHWWFDQNKTEIEAYLKKHPEKQKIIFNNQELFDLKAAIDTKDSQTNSQLFNYFRDKAFPNLSARQLGVMPDLVLDMFINGYYLNVFKTQSTDVNRPYQDKDKRGGIFDAVFTRGDQTTLLTARHDLKNKGLNEISTLIKQELTEGKALALSHTYANVSISHVINLWGADFNAEGNLEAIYVTDSDSNASIGMKKYFVGVNAHGKVAISAKKIEGENIGAQVLGLFTLSSGKDIWQKLSDKTHTCPPCPAPEAAGAPSVFLFPPKPKDTLMISRTPEVTCVVVDVSHEDPEVKFNWYVDGVEVHNAKTKPREEQQNSTYRVVSVLTVLHQDWLNGKEYKCKVSNKALKAPIEKTISKAKGQPREPQVYTLPPSRDELTKNQVSLTCLVKGFYPSDIAVEWESNGQPENNYKTTPPVLDSDGSFFLYSKLTVDKSRWQQGNVFSCSVMHEALHNHYTQKSLSLSPG
B3: VRT-18 (Fc fusion)
chain: QITSVWTKGVTPLTPEQFRYNNEDVIHAPYLAHQGWYDITKAFDGKDNLLCGAATAGNMLHWWFDQNKTEIEAYLSKHPEKQKIIFNNQELFDLKAAIDTKDSQTNSQLFNYFRDKAFPGLSARQLGVFPDLVLDMFINGYYLNVFKTQSTDVNRPYQDKDKRGGIFDAVFTRGVQTTLLTARHDLKNKGLNDISTIIKQELTEGRALALSHTYANVRISHVINLWGADFNAEGNLEAIYVTDSDANASIGMKKYFVGINAHGHVAISAKKIEGENIGAQVLGLFTLSSGKDIWQKLSDKTHTCPPCPAPEAAGAPSVFLFPPKPKDTLMISRTPEVTCVVVDVSHEDPEVKFNWYVDGVEVHNAKTKPREEQQNSTYRVVSVLTVLHQDWLNGKEYKCKVSNKALKAPIEKTISKAKGQPREPQVYTLPPSRDELTKNQVSLTCLVKGFYPSDIAVEWESNGQPENNYKTTPPVLDSDGSFFLYSKLTVDKSRWQQGNVFSCSVMHEALHNHYTQKSLSLSPG
B4: VRT-16 (Fc fusion)
chain: VTSVWTKGVTPPANFTQGEDVFHAPYVANQGWYDITKTFNGKDNLLCGAATAGNMLHWWFDQNKDQIKRYLEEHPEKQKINFNGEQLFDVKEAIDTKNHQLDSKLFEYFKEKAFPYLSTKHLGVFPDHVIDMFINGYRLSLTNHGPTPVKEGSKDKRGGIFDAVFTRGVQSKLLTSRHDFKEKNLKEISDLIKKELTEGKALGLSHTYANVRINHVINLWGADFDSNGNLKAIYVTDSDTNASIGMKKYFVGVNSAGKVAISAKEIKEDNIGAQVLGLFTLSTGQDSWNQTNDKTHTCPPCPAPEAAGAPSVFLFPPKPKDTLMISRTPEVTCVVVDVSHEDPEVKFNWYVDGVEVHNAKTKPREEQQNSTYRVVSVLTVLHQDWLNGKEYKCKVSNKALKAPIEKTISKAKGQPREPQVYTLPPSRDELTKNQVSLTCLVKGFYPSDIAVEWESNGQPENNYKTTPPVLDSDGSFFLYSKLTVDKSRWQQGNVFSCSVMHEALHNHYTQKSLSLSPG
B5: VRT-20 (Fc fusion)
chain: VTSVWTKGVTPPANFTQGEDVFHAPYVANQGWYDITKTFNRKDNLLCGAATAGNMLHWWFDQNKDQIKRYLEEHPEKQKINFKGEQLFDVKEAIDTKNHQLDSKLFEYFKEKAFPYLSTKHLGVFPDHVIDMFINGYRLSLTNHGPTPVKEGSKDKRGGIFDAVFTRGVQSKLLTSRHDFKEKNLKEISDLIKKELTEGKALGLSHTYANVRINHVINLWGADFDSNGNLKAIYVTDSDTEASIGMKKYFVGVNKAGKVAISAKEIKEDNIGAQVLGLFTLSTGQDSWNQTNDKTHTCPPCPAPEAAGAPSVFLFPPKPKDTLMISRTPEVTCVVVDVSHEDPEVKFNWYVDGVEVHNAKTKPREEQQNSTYRVVSVLTVLHQDWLNGKEYKCKVSNKALKAPIEKTISKAKGQPREPQVYTLPPSRDELTKNQVSLTCLVKGFYPSDIAVEWESNGQPENNYKTTPPVLDSDGSFFLYSKLTVDKSRWQQGNVFSCSVMHEALHNHYTQKSLSLSPG
B6: VRT-14 (Fc fusion)
chain: SQTEDSESLQRLRDIEDFQAEKKKQNVVYTKWLDGVDVKDHDFRKIVDGNIAYYATPLLNGRGFYDINKDFNRDSDKCAAAVAANMFHYWLDRNRDNVDRFLRQNPEKHGIIELPDGQLKLSDFLNTYESDDGYRDKSKLFDFISNNFNGPVWTDKLLDNYINGYAYNYKYGRTIEDPTKNTSKINFFKEVFNEKILTNNHSIRNQNEFSVLLSEALYTGKAIGLSYGPAGLRHSLGHIISVWGADLDADGNVVAIYVTDSDDKKLTIGDERVGLKRYKISTDDEGRLRLTAYEETHNTGGQIRGLWTLDTGKQAWADYFDKTEQTGTDQAEQDKTHTCPPCPAPEAAGAPSVFLFPPKPKDTLMISRTPEVTCVVVDVSHEDPEVKFNWYVDGVEVHNAKTKPREEQQNSTYRVVSVLTVLHQDWLNGKEYKCKVSNKALKAPIEKTISKAKGQPREPQVYTLPPSRDELTKNQVSLTCLVKGFYPSDIAVEWESNGQPENNYKTTPPVLDSDGSFFLYSKLTVDKSRWQQGNVFSCSVMHEALHNHYTQKSLSLSPG
B7: VRT-19 (Fc fusion)
chain: SQTEDSESLQRLRDIEDFQAEKKMQNVVYTKWLDGVDVKDHDFRKIVDGNIAYYATPLLNGRGFYDINKDFNRDNDKCAAAVAANMFHYWLDINRDNVDRFLRQNPEKHGIIELPDGQLKLSDFLNTYESDHGYRDKSKLFDFISNNFNGPVWTDKLLDNYINGYAYNYKYGRTIEDSTKNTSKINFFKEVFNEKILTNNHSIRNQNEFSVLLSEALYTGKAIGLSYGPAGLRHSLGHIISVWGADLDADGNVVAIYVTDSDDKKLTIGDERVGLKRYKISTDDENRLRLTAYEETHNTGGQIRGLWTLDTGKYAWADYFDKTEQTGTDQAEQDKTHTCPPCPAPEAAGAPSVFLFPPKPKDTLMISRTPEVTCVVVDVSHEDPEVKFNWYVDGVEVHNAKTKPREEQQNSTYRVVSVLTVLHQDWLNGKEYKCKVSNKALKAPIEKTISKAKGQPREPQVYTLPPSRDELTKNQVSLTCLVKGFYPSDIAVEWESNGQPENNYKTTPPVLDSDGSFFLYSKLTVDKSRWQQGNVFSCSVMHEALHNHYTQKSLSLSPG
B8: VRT-17 (Fc fusion)
chain: VTSVWTKGVTPPAKFTQGEDVFHAPYVANQGWYDITKTFNGKDNLLCGAATAGNMLHWWFDQNKEKIEAYLKKHPDKQKIIFGDQELLDVRKVINTKGDQTNSELFNYFRDKAFPGLSARRIGVFPDLVLDMFINGYYLNVYKTQTTDVNRTYQEKDRRGGIFDAVFTRGVQSKLLTSRHDFKEKNLKEISDLIKKELTEGKALGLSHTYANVRINHVINLWGADFDSNGNLKAIYVTDSDTNASIGMKKYFVGVNSAGKVAISAKEIKEDNIGAQVLGLFTLSTGQDSWNQTNDKTHTCPPCPAPEAAGAPSVFLFPPKPKDTLMISRTPEVTCVVVDVSHEDPEVKFNWYVDGVEVHNAKTKPREEQQNSTYRVVSVLTVLHQDWLNGKEYKCKVSNKALKAPIEKTISKAKGQPREPQVYTLPPSRDELTKNQVSLTCLVKGFYPSDIAVEWESNGQPENNYKTTPPVLDSDGSFFLYSKLTVDKSRWQQGNVFSCSVMHEALHNHYTQKSLSLSPG
B9: VRT-21 (Fc fusion)
chain: VTSVWTKGVTPPAKFTQGEDVFHAPYVANQGWYDITKTFNRKDNLLCGAATAGNMLHWWFDQNKEKIEAYLKKHPDKQKIIFGDQELLDVRKVINTKGDQTNSELFNYFRDKAFPGLSARRIGVFPDLVLDMFINGYYLNVYKTQTTDVNRTYQEKDRRGGIFDAVFTRGVQSKLLTSRHDFKEKNLKEISDLIKKELTEGKALGLSHTYANVRINHVINLWGADFDSNGNLKAIYVTDSDTRASIGMKKYFVGVNAAGKVAISAKEIKEDNIGAQVLGLFTLSTGQDSWNQTNDKTHTCPPCPAPEAAGAPSVFLFPPKPKDTLMISRTPEVTCVVVDVSHEDPEVKFNWYVDGVEVHNAKTKPREEQQNSTYRVVSVLTVLHQDWLNGKEYKCKVSNKALKAPIEKTISKAKGQPREPQVYTLPPSRDELTKNQVSLTCLVKGFYPSDIAVEWESNGQPENNYKTTPPVLDSDGSFFLYSKLTVDKSRWQQGNVFSCSVMHEALHNHYTQKSLSLSPG

The assay deals with pooled human IgG (human). Description: cell-based or functional assay.
For the molecule B1, the Enzyme Activity Endpoint Assay: Fab′2 worked out at 0 ng/µL, the Enzyme Activity Endpoint Assay: Fc came out at 97 ng/µL, the Enzyme Activity Endpoint Assay: IgG is 814 ng/µL and the Enzyme Activity Endpoint Assay: scIgG worked out at 42 ng/µL.
B2 registered an Enzyme Activity Endpoint Assay: Fab′2 of 0 ng/µL, an Enzyme Activity Endpoint Assay: Fc of 101 ng/µL, an Enzyme Activity Endpoint Assay: IgG of 747 ng/µL and an Enzyme Activity Endpoint Assay: scIgG of 64 ng/µL.
For B3 the same measures were 0 ng/µL, 4 ng/µL, 995 ng/µL and 9 ng/µL.
The like results for B4 were, in that order, 0 ng/µL, 130 ng/µL, 682 ng/µL and 91 ng/µL.
The like results for B5 were, in that order, 0 ng/µL, 5 ng/µL, 981 ng/µL and 12 ng/µL.
B6 registered an Enzyme Activity Endpoint Assay: Fab′2 of 0 ng/µL, an Enzyme Activity Endpoint Assay: Fc of 4 ng/µL, an Enzyme Activity Endpoint Assay: IgG of 1020 ng/µL and an Enzyme Activity Endpoint Assay: scIgG of 22 ng/µL.
Turning to B7, the Enzyme Activity Endpoint Assay: Fab′2 was 0 ng/µL, the Enzyme Activity Endpoint Assay: Fc is 54 ng/µL, the Enzyme Activity Endpoint Assay: IgG turned out to be 1250 ng/µL and the Enzyme Activity Endpoint Assay: scIgG is 33 ng/µL.
The like results for B8 were, in that order, 0 ng/µL, 5 ng/µL, 1030 ng/µL and 20 ng/µL.
The like results for B9 were, in that order, 0 ng/µL, 6 ng/µL, 949 ng/µL and 11 ng/µL.
